Data on 140 substances can be found in the supplement of paper PMC12042874.

± gives the uncertainty stated by the source.

The nature of the data set: amyloid nucleation score (Sup35N fusion, yeast selection) (log enrichment); library NNK2; higher = more nucleation; inactive = no reads after selection. The essentials: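 On medium lacking adenine and uracil, psi-negative yeast expressing peptides of 20 random codons fused to Sup35N were grown 7 days at 30°C after a 24-hour induction with 100 μM copper sulfate. Illumina sequencing of input and output plasmid inserts gave the reads, and sequences under 100 input reads were excluded. The nucleation score is the DiMSum log enrichment of output over input reads, centred on the mode score of non-aggregating sequences.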
EYFFYLLSSIMHIE returned an amyloid nucleation score of 2.45 ± 0.1.

HNYMLVILHRDSPNLNLGHS: the amyloid nucleation score turned out to be 3.94 ± 0.12. The substance HLNVKLKQVKDGQPCLMRLA showed an amyloid nucleation score of 1.67 ± 0.4. The value for CTPLGFCSKNRLGLQEDGVK was -0.788 ± 0.76; that for AVRPGSRSWGVIRGVNSTFL was 1.08 ± 0.43; that for GSKTRFF was “inactive”. In turn, SFGYPPVCLLFSHLHRRFLL came in with an amyloid nucleation score of 0.237 ± 1. For the substance LKITRRSALV, the amyloid nucleation score turned out to be 0.186 ± 0.76. The result for FAHERHTIYRQVSIMMWRSM reads 0.426 ± 0.25; that for LGRWASGTAG, 0.558 ± 0.57.

For IVNTELVLVDKLDSCIVRYN, the amyloid nucleation score was 3.02 ± 0.17. The result for KGLWTISVSLWVV reads 0.112 ± 0.18. The result for HIRFVDWNDTLIWVANGYI reads 0.049 ± 0.8; that for CEHRSLTFWHNGLLD, -0.143 ± 0.65; that for RAHVYSSKDP, 5.92 ± 0.059. The result for SNPDSLVLAGMLARMAYRKL reads -0.423 ± 0.61. Take VVMNFMTDVNSLVWPTS: the amyloid nucleation score result was “inactive”. With ARTKVIY, the amyloid nucleation score is -1.34 ± 0.75. Regarding YCITEVRWAVA, the amyloid nucleation score was determined as 5.61 ± 0.058. The value for VASKGCRYYNRLADFLHWSK was 0.027 ± 0.74; that for IFCWL was 3.51 ± 0.047. The result for RAWHPFDGEYNIVFSHIVLK reads -0.525 ± 1.1; that for YNRNRCEVWRLFCLFCLLCF, 2 ± 0.089; that for FNATIVDRDLRSRGQNRSLQ, 0.362 ± 0.65. In turn, FSVRGRWAHLWMK came in with an amyloid nucleation score of 0.443 ± 0.42. The result for VFTTLDWTSKYALIR reads 0.56 ± 0.5; that for GDYSCVHQVRKIDM, 0.162 ± 0.18.

In the case of FDCRNIREMHTRVYNSCTHP, the amyloid nucleation score is -0.266 ± 1. The result for CASLRIEDP reads 1.17 ± 0.18; that for MHASDDMLKCWYKCAEVRPA, 1.29 ± 0.31; that for NNLHPDYDMGIGYIIDGDPA, -0.34 ± 0.62. The value for SQLYE was 1.23 ± 0.44. The result for GSSGFGRVLTGIYKCYTYWE reads “inactive”; that for QYVDWLLYGLRDCYWYRRVY, 0.192 ± 0.3; that for CYHVTLMR, 0.718 ± 0.26. With RVLRSETYDSFSL, the amyloid nucleation score is -0.163 ± 0.32.

Turning to GRKLNFGQAFLWLYQVCWFM, the amyloid nucleation score result is “inactive”.

Substance GLRSLVHEARCRYKTSTSVK had an amyloid nucleation score of -0.939 ± 0.55.

Substance MDVGYCRNAVHRMLGMNCMM registered an amyloid nucleation score of 4.95 ± 0.062. For LIVGAIASLHHTLQVNGSPN, the amyloid nucleation score came to 4.59 ± 0.11. The value for FINSD was “inactive”; that for QLQFMRADFFLNKVKLRGET was “inactive”.

For the substance CSLQYYSLRNDRDRVTELRR, the amyloid nucleation score was 0.475 ± 0.51. TDVFCLDKSVQTRILTEVAT yielded an amyloid nucleation score of -0.439 ± 0.41. The result for FYGRCLTFTAHPSFSRFAR reads 0.333 ± 0.61; that for MLSIVNCNGSRVGYWTDS, 5.85 ± 0.08; that for AMYLPWARCSISPTNLIFNL, -1.1 ± 0.42.

Take LNAYGGRCSL: the amyloid nucleation score stood at 0.317 ± 0.5. The result for YICLAVGDVNGEMNYWVIRG reads 6.865 ± 0.043; that for LHKISIGKCSRCSCRNTFGE, -0.171 ± 1; that for TKNACMPRGQGRMAPLRCCL, 0.857 ± 0.51. The result for ACNSRHHEFMSSKFYSATQL reads -1.3 ± 0.78.

In turn, WTYDVQGREVCYVKPYLAMW registered an amyloid nucleation score of 1.07 ± 0.32. The value for SQFLEYTFEYFSGFPGRLVE was -0.316 ± 0.42. The value for AWDEINYD was 0.292 ± 0.56; that for QSVLSLSGLYGHDLREGLL was -0.387 ± 0.49; that for HSRLLCWANVDLERFSEWSG was 1.46 ± 0.23. The result for MAVKRGIHRQADPGITWDTE reads 5.17 ± 0.082; that for SGSGGSSLLFTIGEQGRRRI, -0.876 ± 0.45. Regarding LHFQYERSWNARSTLM, the amyloid nucleation score was determined as 4.08 ± 0.076. The value for IKERGLCRWMYARFKGKSAI was “inactive”; that for LWQLPIILWFLRNCVMRNPA was -0.723 ± 0.79. The result for KLLPEWSWKG reads 0.428 ± 0.39.

Substance LGGLSDVFQNRPLMTYGAWS displayed an amyloid nucleation score of -0.303 ± 0.35. The value for ILWNYIYDKSFGITPDGFV was -0.398 ± 1. The result for DPPSSFEFMCLRLWV reads 3.35 ± 0.085; that for YTEGAWVRVSDYRE, -0.565 ± 0.29; that for FEVLIFVDCWFVVMGRETLN, 2.68 ± 0.15. Substance TSGLMMSVCKFDLWQNVND showed an amyloid nucleation score of 3.81 ± 0.09. The result for LIVWT reads 0.593 ± 0.54. The value for SGIHEIFESVFFNTYFRRMT was -0.549 ± 1; that for ILSCRYHNYSQQLVK was “inactive”; that for NQVQCKCSYKVVEVG was 0.408 ± 0.2.

With RLHPMRSNI, the amyloid nucleation score was -0.43 ± 0.3. With VITVTPGGHVPWVLASNGNI, the amyloid nucleation score is -1.53 ± 0.78.

Take LCQNKTMTIGRFKIGHKWYP: the amyloid nucleation score worked out at 0.004 ± 1.1. NRIYVQNRPWSIPENVELTG registered an amyloid nucleation score of -0.821 ± 0.78. The value for EIHGMCTLYIFNSRPYIYPG was 6.594 ± 0.035; that for SATEWIISVGGRAWRF was 2.65 ± 0.12. LYSVGFRLTS: the amyloid nucleation score entry was “inactive”. The value for IYACSCLIKVDFYEAIPIWV was “inactive”. The value for MINYCREIQFRM was 3.63 ± 0.12; that for GMCYGGKFDY was -0.356 ± 0.33. The value for SSRHNPIWLRTAMDGDLGFA was 0.864 ± 0.5; that for PSGNQELLGTMTWIRKVTQS was -0.86 ± 0.34.

IADIVEHCCAVRVCALGGLM showed an amyloid nucleation score of 0.393 ± 0.8. The value for AVIVAIFCSSGYYRHFYTFT was -0.214 ± 1; that for IGMCLILRNPYIVLSDRWSS was 0.308 ± 0.39. Substance ARFILFVALFWKFLY came in with an amyloid nucleation score of 0.431 ± 0.46.

The substance YHCENDEALIRDSGPSKTTK had an amyloid nucleation score of 0.485 ± 0.41. The value for GDKSIRSPLAV was -0.087 ± 0.34; that for LFMPGSFFDIFE was -2.05 ± 0.78. The result for HIIIFLWYRRHFSS reads 1.78 ± 0.22; that for VVDGLRATAH, 0.366 ± 0.38; that for RIIYEAC, -0.865 ± 0.23.

For CTIRLECLLA, the amyloid nucleation score is -0.428 ± 0.46. The value for KNGATLSCYILYSCGLMASV was -2.34 ± 0.62; that for MTTYAVLGVPI was -0.421 ± 0.28.

For the substance KDGKALT, the amyloid nucleation score entry was “inactive”. The result for RMWFVNNLDDWFLPTCLWDR reads “inactive”. The value for FNWDNFSKLVAKNNLVISKL was “inactive”; that for IKVYSTVYQVSCLLRLMLLM was -1.24 ± 0.64. The result for YLYGGVYKIKIMILPFDRAL reads 7.621 ± 0.044; that for NTRRSFVRVYFNGLGLCGAN, “inactive”. Consider TSTIYGLTPRFGNMAHSAVV, for which the amyloid nucleation score worked out at 0.227 ± 0.65. The result for LCLELFKQSVQFGLC reads 0.325 ± 0.35; that for RSRSSFLHIFSSFKHISTR, -0.74 ± 1.1. The result for ASPFRF reads 0.816 ± 0.74. The value for FIITNWQVSFRL was 4.383 ± 0.042; that for MDIFRYVCNCYKSSNKKVFG was -1.25 ± 0.78; that for FQGVVSRYSYYS was 1.81 ± 0.22.

Take HARHRGVCFWCVADSAPVYH: the amyloid nucleation score is -0.012 ± 1.1. The result for DILMLNRSVGDIREAISVNG reads 0.48 ± 0.51; that for RVISGSMVETIDEDIVEGVN, -0.332 ± 0.3; that for VFTKLTLSSI, 0.227 ± 1.1. The result for TTLMWVWFIGFWP reads 6.139 ± 0.04; that for WDSQESITKS, -0.172 ± 0.54. The result for PFYVSRRVCKYAF reads -0.301 ± 0.28.

On to AGTFKRWPLGYECFVSERIG, for which the amyloid nucleation score is -0.803 ± 0.49.

GNVVMN registered an amyloid nucleation score of 0.863 ± 0.18.

For the substance FVHFMRVAASRNTNFYNLLW, the amyloid nucleation score result was “inactive”. The result for TVMTFEYSEHVFRDMDT reads -0.501 ± 1; that for PKLPLAESR, -0.11 ± 0.53.

RGVKDRKRQVQFEKSSRSMA displayed an amyloid nucleation score of 0.361 ± 0.21.

LWFQVTFDRICLQITTHTEL had an amyloid nucleation score of 4.86 ± 0.075. In turn, KLFQNHLIINCPAMVISNEQ had an amyloid nucleation score of 7.609 ± 0.057. The result for LYRRIRCFIYPFCKGVRCLC reads -1.77 ± 0.62; that for MDNTWNLCDSFYSCSGDLNT, -0.595 ± 0.35; that for NSREALVKVGNECP, “inactive”. The value for ILLISVCYRNIVYISSSLMG was -0.172 ± 0.21; that for KFCSRVFSQCMSYLSCLLDF was 0.17 ± 0.74. The result for TDSRFLWGSKRNHCVRWCML reads -0.242 ± 1.1. The substance VISSMFNLIKYGSVWSLRGL displayed an amyloid nucleation score of -0.706 ± 1. In the case of RLAFSKE, the amyloid nucleation score was -0.065 ± 0.46. The result for FCNNWDFF reads 2.41 ± 0.14; that for PKNMWGSNNLRGMPVSDVKS, 0.032 ± 0.34; that for VFPQLCDVSLE, -0.476 ± 1.1. The result for DQESRNSVFSGKGGRRDVSS reads -0.134 ± 0.37. The result for FALNLFCEDKCLYCSLVSS reads 2.92 ± 0.066; that for RRYIMQSWLHATSEFPGCDP, 0.54 ± 0.53.
